In test [1] the target is T1, full length BPV-1 E2 protein, in vitro translated (bovine papillomavirus-1, 35S-methionine-labelled).
T1 chain: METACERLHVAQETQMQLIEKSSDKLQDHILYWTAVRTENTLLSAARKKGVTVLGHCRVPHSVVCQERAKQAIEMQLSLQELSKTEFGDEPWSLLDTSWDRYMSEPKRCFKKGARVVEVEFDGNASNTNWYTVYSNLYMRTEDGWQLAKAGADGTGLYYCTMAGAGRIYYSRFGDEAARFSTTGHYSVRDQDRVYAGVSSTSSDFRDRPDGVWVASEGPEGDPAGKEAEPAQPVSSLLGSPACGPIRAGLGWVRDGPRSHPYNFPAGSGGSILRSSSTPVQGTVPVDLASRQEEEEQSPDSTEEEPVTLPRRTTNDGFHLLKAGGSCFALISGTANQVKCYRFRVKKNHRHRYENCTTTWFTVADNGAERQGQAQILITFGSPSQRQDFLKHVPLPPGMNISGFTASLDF
The test can be described thus: GST pull-down of in vitro translated 35S-E2.

Another test addresses T2, BPV-1 E2 (aa161-410) (bovine papillomavirus-1, 35S-methionine-labelled).
T2 chain: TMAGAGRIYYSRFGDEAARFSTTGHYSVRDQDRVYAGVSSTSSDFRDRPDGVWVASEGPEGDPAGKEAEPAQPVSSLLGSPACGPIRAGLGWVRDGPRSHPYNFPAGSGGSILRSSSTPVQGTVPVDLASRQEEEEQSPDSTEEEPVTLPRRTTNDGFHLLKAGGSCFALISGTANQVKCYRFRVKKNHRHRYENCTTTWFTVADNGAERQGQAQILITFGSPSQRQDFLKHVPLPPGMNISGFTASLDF
Nature of the test: GST pull-down of in vitro translated 35S-E2 forms.

The target of test [2] is T3, BPV-1 E2 protein bearing a deletion of the amino terminal 52 amino acids (bovine papillomavirus-1, 35S-methionine-labelled).
T3 chain: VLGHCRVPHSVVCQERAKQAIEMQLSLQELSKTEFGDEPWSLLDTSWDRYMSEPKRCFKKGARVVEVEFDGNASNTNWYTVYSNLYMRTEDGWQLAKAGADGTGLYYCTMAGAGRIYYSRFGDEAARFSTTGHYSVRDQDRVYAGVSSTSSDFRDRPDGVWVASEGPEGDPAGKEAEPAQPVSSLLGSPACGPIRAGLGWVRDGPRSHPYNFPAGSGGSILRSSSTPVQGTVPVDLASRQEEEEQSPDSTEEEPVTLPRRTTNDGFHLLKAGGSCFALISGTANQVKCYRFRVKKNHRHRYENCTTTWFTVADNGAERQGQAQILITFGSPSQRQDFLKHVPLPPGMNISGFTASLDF
Nature of the test: GST pull-down of in vitro translated 35S-E2 forms.

B1: GST fusion protein containing amino acids 200-424 of SEQ ID NO:1 (BPV-1 E1) (other)
chain: AEVFFEASFELLKKQCSFLQMQKRSHEGGTCAVYLICFNTAKSRETVRNLMANTLNVREECLMLQPAKIRGLSAALFWFKSSLSPATLKHGALPEWIRAQTTLNESLQTEKFDFGTMVQWAYDHKYAEESKIAYEYALAAGSDSNARAFLATNSQAKHVKDCATMVRHYLRAETQALSMPAYIKARCKLATGEGSWKSILTFFNYQNIELITFINALKLWLKGIP
Take B1: in test [1], the binding result is reported as “no binding”.

B2: GST fusion protein containing BPV-1 E1 amino acids 1-128 (other)
chain: MANDKGSNWDSGLGCSYLLTEAECESDKENEEPGAGVELSVESDRYDSQDEDFVDNASVFQGNHLEVFQALEKKAGEEQILNLKRKVLGSSQNSSGSEASETPVKRRKSGAKRRLFAENEANRVLTPL
Take B2: in test [1], the binding result is given as “no binding”.

B3: BPV-1 E1 (amino acids 1-222)-GST fusion protein (other)
chain: MANDKGSNWDSGLGCSYLLTEAECESDKENEEPGAGVELSVESDRYDSQDEDFVDNASVFQGNHLEVFQALEKKAGEEQILNLKRKVLGSSQNSSGSEASETPVKRRKSGAKRRLFAENEANRVLTPLQVQGEGEGRQELNEEQAISHLHLQLVKSKNATVFKLGLFKSLFLCSFHDITRLFKNDKTTNQQWVLAVFGLAEVFFEASFELLKKQCSFLQMQK
Regarding B3, the binding result (with BPV-1 E2 (aa161-410); in test [2]) was “no binding” throughout.

Values taken from patent US5821048, “Methods, kits, and compositions for diagnosing papillomavirus infection” (President and Fellows of Harvard College, dated 1998).
